Source: article PMC10509710

Key:
[1] = target: human full-length scavenger receptor class B type 1 (SR-B1), glycosylated (human) (UniProt Q8WTV0); test: flow cytometry on cells; Sf9 cells 72 h after baculovirus infection, 10 μg/ml DiI-HDL or DiI-oxLDL in ESF 921/0.5% BSA for 90 min at 4 °C; MFI compared with cells infected with empty vector
[2] = target: human full-length cluster of differentiation 36 (CD36), glycosylated (human) (UniProt P16671); test: as above
[3] = target: human full-length cluster of differentiation 36 (CD36), glycosylated (human) (UniProt P16671); test: MST; Cy5-labeled receptor (RED-NHS, lysines) at constant 20 nM, ligand in a 16-point 1:1 dilution series; exchange buffer (50 mM Hepes pH 7.5, 150 mM NaCl, 0.025% LMNG, 0.005% CHS); 25 °C, 40% MST power; apparent Kd, one-site specific binding; molar values from average molecular weights (267.5 kDa HDL, 3500 kDa oxLDL)
[4] = target: human full-length scavenger receptor class B type 1 (SR-B1), glycosylated (human) (UniProt Q8WTV0); test: as above

Sequence of human high-density lipoprotein (HDL), holoparticle (P02647 whole entry, looked up): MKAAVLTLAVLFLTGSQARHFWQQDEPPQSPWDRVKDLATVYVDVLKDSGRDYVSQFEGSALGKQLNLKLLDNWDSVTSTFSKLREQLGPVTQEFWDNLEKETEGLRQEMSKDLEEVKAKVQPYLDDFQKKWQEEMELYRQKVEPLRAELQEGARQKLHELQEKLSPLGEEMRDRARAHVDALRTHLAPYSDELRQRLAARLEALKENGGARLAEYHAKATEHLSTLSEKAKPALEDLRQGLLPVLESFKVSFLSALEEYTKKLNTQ
Sequence of human full-length scavenger receptor class B type 1 (SR-B1), glycosylated (human) (Q8WTV0 other isoform, or with tags, fused parts or gaps): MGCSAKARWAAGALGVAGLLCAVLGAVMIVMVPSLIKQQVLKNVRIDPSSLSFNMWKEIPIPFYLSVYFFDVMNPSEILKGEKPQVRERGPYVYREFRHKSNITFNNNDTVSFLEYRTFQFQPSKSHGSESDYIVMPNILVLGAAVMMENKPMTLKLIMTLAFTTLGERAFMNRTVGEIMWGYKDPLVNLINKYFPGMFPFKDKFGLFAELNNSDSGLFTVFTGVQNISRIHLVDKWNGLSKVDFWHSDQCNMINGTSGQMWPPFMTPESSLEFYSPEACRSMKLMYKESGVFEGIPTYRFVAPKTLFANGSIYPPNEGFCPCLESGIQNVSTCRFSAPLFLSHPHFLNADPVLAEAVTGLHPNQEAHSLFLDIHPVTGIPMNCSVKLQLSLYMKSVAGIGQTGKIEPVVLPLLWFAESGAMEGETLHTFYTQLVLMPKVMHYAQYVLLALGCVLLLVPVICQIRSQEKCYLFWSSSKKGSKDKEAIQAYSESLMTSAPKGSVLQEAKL
Sequence of human full-length cluster of differentiation 36 (CD36), glycosylated (human) (P16671 whole entry): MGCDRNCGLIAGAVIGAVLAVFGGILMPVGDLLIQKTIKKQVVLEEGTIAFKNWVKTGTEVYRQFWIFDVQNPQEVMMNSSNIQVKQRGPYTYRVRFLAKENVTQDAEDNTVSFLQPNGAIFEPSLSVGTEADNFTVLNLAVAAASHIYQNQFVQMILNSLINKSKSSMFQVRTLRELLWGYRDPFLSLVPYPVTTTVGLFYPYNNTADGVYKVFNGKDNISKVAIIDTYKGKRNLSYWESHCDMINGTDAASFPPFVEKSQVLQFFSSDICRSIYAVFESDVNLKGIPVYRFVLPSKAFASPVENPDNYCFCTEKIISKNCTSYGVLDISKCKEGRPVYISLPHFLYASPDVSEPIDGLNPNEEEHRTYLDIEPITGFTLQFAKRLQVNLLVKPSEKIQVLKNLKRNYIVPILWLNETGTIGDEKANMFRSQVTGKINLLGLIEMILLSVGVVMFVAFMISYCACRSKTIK
Sequence of DiI-labeled high-density lipoprotein (DiI-HDL) (P02647 whole entry, looked up): as the sequence (P02647 whole entry, looked up) above

“DiI-labeled high-density lipoprotein (DiI-HDL) (from UniProt P02647 19-267) (complex)” gave a percent increase of DiI-HDL binding (MFI at 4 °C) against empty vector [1] of 37%.

With “DiI-labeled oxidized low-density lipoprotein (DiI-oxLDL) (complex)” the percent increase of DiI-oxLDL binding (MFI at 4 °C) against empty vector [2] was 21%.

“human high-density lipoprotein (HDL), holoparticle (from UniProt P02647 19-267) (complex)” showed a Kd [3] of 123 nM and a Kd [4] of 194 nM.
